Paper PMC3035459 (Nucleic Acids Research, 2010)

Target: the molecule itself
Experiment: crystal structure

B1: Methanocaldococcus jannaschii O-phosphoseryl-tRNA kinase (enzyme, UniProt Q58933 1-248, looked up)
chain: MLIILTGLPGVGKSTFSKNLAKILSKNNIDVIVLGSDLIRESFPVWKEKYEEFIKKSTYRLIDSALKNYWVIVDDTNYYNSMRRDLINIAKKYNKNYAIIYLKASLDVLIRRNIERGEKIPNEVIKKMYEKFDEPGKKYKWDEPFLIIDTTKDIDFNEIAKKLIEKSKEIPKFYVLEENKNKNNNISDKIDKETRKIVSEYIKSKKLDKDKIKEVVELRKEFLKKIKKMEEVDADRVLKEFKDLLNSY
  stoichiometry N: 2
